Laboratory results from patent US9340788B2 (priority 2007, dated 2016).
“Also recorded” adds a separate entry of the source.

B1: p110α siRNA: mixture of 4 RNAi oligos, "smart pool" from Dharmacon, against PI3K p110α, SEQ ID NO: 5-8 (nucleic acid)
chain 1: GCGAAAUUCUCACACUAUU
chain 2: GUGGUAAAGUUCCCAGAUA
chain 3: GCUUAGAGUUGGAGUUUGA
chain 4: GACCCUAGCCUUAGAUAAA
modifications: pool of four siRNAs, further chemistry not given here
B2: PDGFRα siRNA: "smart Pool" siRNA to hPDGFRα (Dharmacon), SEQ ID NO: 1-4 (nucleic acid)
chain 1: CGAGACUCCUGUAACCUUAUU
chain 2: GAGCUUCACCUAUCAAGUUUU
chain 3: GACAGUGGCCAUUAUACUAUU
chain 4: GAAUAGGGAUAGCUUCCUGUU
modifications: pool of four siRNAs, further chemistry not given here

What was measured:
Assay type in all cases: cell-based, Human cytomegalovirus
HCMV [1] = experiment: HCMV IE1 / viral gene expression, western blot of infected cells; conditions: HEL; p110α knockdown vs non-targeting siRNA
HCMV [2] = experiment: as above
Procedure: (A) pp65 immunofluorescence after HCMV treatment (1 h, 4° C.) followed by shifting to 37° C. for indicated times. Rows represent (top to bottom): HEL, PDGFRα null fibroblasts, parental fibroblasts, null fibroblasts overexpressing hPDGFRα, HEL transfected with control, or PDGFRα siRNA. Nuclei were stained with DAPI. (B) Average±S.D. pp65 positive/100 cells counted in triplicate from (A). (C) Mock or HCMV infected cells were analyzed by western blotting with the indicated antibodies. Lanes 1-4 indicate HEL, 325S, PDGFRα null and PDGFRα null over-expressing hPDGFRα, respectively. (D) HEL transfected with control or PDGFRα siRNA were mock (lanes 1) or HCMV-treated (lanes 2) and subjected to western blots with indicated antibodies. (E) Western blot of HEL and U87 lysates after infection with mock (lanes 1), HCMV (lanes 2), or HCMV pretreated with IMC-3G3 (10 μg/ml, 12 h, lanes 3) or Gleevec (100 nM, 1 h, lanes 4). […] 6 dpi, supernatants were used to infect naïve HEL cells, followed by IE1 immunostaining and quantification (secondary infection). […]
HUVEC cells were pre-treated with IMC-3G3 (10 μg/ml, Imclone, 12 h), or Gleevec (100 nM, 1 h) prior to HCMV or mock infection. 12 hours post-infection, cell lysates were analyzed by western blot for the presence of IE1 gene product. […]
Western Blot, Immunoprecipitation, and Immunofluorescence analyses. […] Cell lysates were analyzed by SDS-PAGE. […]

HCMV [3] = experiment: IE1 immunofluorescence of HCMV infected HEL cells
Procedure: HEL cells were transfected with PDGFRα siRNA (smart pool, Dharmacon) or non-targeting control siRNA (Dharmacon) for 48-60 hours when maximum protein knockdown is achieved (panels a and b. Also see FIG. 3d). Cells were then infected with Towne, AD169, TR, or CMV-GFP strains of HCMV for 1 hour, washed and returned to 37° C. in complete growth media. Supernatants obtained from these cultures were used in subsequent assays measuring production of infectious virus as described below. […] Cultures infected with supernatants from GFP-CMV treated cells were monitored daily under the fluorescence microscope. Over 40% of the control siRNA treated cells expressed CMV-GFP 1 day post infection (c, 1 dpi) and this number increased to 100% by day 6 (c, 6 dpi). Note the appearance of “plaques”-like groups of cells in control siRNA transfected cells (c, 3 and 6 dpi). […]
Measurements of Infectious Virus Production. […] A duplicate set of cultures was analyzed by immunofluorescence at 12 hours post infection (hpi) to assess percent of IE1 positive cells, as a measure of “primary infection”. […] 12 hpi cells were stained for IE1 and IE1 positive cells were counted amongst a total of 100 cells/low magnification microscopic field, 4 fields/condition. […] Where indicated, CMV-GFP infected cells were monitored daily under fluorescence microscope. […]

Molecule | viral gene expression (HCMV [1]) | IE1 expression (HCMV [2]; HEL, siRNA 48 h prior to HCMV MOI of 1, western blot 2 h post-infection) | reduction of mean number of IE1 positive cells (HCMV [3]; HEL, p110α knockdown cultures, p<0.01) | viral gene expression (IE1 and pp65) (HCMV [2]; HEL cells pre-treated with siRNA, western blot, compared to controls) | IE1 gene expression (primary infection) (HCMV [3]; HEL transfected with siRNA 48-60 h, 12 hpi, vs control siRNA)
B1 | delay | inhibited | ~50% | – | –
B2 | – | – | – | undetectable | Near complete inhibition; also recorded: significantly inhibited
